Results from article PMC4434323.

How the values were obtained:
[1] = molecular target: T1, nhr-142 (F44E7.8) (Caenorhabditis elegans) (UniProt J7SF93)
T1 sequence: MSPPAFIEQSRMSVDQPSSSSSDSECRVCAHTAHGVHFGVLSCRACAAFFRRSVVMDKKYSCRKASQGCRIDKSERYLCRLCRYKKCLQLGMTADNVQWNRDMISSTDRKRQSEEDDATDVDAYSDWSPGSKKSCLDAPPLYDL

[2] = molecular target: T2, nhr-204 (R02C2.4) (Caenorhabditis elegans) (UniProt O44543)
T2 sequence: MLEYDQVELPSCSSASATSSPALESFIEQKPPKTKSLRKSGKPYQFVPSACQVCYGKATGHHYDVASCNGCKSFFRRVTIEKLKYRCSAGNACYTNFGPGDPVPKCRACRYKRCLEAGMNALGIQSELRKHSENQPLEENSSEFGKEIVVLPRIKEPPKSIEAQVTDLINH

[3] = molecular target: T3, daf-12 (F11A1.3) (Caenorhabditis elegans) (UniProt G5EFF5)
T3 sequence: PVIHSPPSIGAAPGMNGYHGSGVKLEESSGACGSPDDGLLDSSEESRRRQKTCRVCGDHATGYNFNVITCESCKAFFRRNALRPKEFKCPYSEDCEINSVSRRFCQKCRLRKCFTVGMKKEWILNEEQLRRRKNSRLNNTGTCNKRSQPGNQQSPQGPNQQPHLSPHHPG

[4] = molecular target: T4, nhr-46 (C45E5.6) (Caenorhabditis elegans) (UniProt Q95QR2)
T4 sequence: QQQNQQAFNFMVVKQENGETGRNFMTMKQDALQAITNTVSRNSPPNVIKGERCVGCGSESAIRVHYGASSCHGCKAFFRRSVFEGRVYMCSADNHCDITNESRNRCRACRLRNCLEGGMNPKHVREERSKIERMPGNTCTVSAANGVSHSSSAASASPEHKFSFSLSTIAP

[5] = molecular target: nhr-34 (F58G6.5) (Caenorhabditis elegans) (UniProt Q21006)
Sequence of nhr-34 (F58G6.5) (Caenorhabditis elegans) (Q21006 99-268): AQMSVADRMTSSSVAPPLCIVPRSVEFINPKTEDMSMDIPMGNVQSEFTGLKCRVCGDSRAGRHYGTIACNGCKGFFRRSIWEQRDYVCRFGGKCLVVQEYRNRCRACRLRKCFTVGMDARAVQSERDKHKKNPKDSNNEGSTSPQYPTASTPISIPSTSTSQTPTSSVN

[6] = molecular target: T5, nhr-3 (H01A20.1) (Caenorhabditis elegans) (UniProt Q9XTJ4)
T5 sequence: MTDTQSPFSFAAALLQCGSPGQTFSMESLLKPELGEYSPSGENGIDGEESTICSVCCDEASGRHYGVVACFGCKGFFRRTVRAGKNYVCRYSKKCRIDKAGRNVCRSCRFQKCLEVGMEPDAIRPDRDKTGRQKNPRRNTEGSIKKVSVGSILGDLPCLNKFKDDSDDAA

[7] = molecular target: T6, nhr-42 (C33G8.6) (Caenorhabditis elegans) (UniProt O76828)
T6 sequence: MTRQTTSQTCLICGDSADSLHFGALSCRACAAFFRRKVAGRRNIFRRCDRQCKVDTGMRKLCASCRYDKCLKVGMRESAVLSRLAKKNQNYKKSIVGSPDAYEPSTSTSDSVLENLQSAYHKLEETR

[8] = molecular target: T7, atf-5 (T04C10.4) (Caenorhabditis elegans) (UniProt Q22156)
T7 sequence: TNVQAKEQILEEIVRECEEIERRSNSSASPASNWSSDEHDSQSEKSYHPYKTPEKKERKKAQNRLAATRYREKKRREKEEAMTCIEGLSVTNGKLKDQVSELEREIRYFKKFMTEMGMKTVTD

[9] = molecular target: T8, atf-6 (F45E6.2) (Caenorhabditis elegans) (UniProt Q20435)
T8 sequence: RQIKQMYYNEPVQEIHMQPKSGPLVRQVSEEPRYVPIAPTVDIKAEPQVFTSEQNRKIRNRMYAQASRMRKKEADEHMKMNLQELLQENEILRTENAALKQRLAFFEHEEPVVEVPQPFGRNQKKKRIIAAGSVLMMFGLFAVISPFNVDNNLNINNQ

## CAGTCACA (double strand) [8-mer CAGTCACA]
[1]
  binding signal (PBM E-score (-0.5 to 0.5)): 0.483

## AATTGGTC (double strand) [8-mer AATTGGTC]
[2]
  binding signal (PBM E-score (-0.5 to 0.5)): 0.484

## AAGTGCAA (double strand) [8-mer AAGTGCAA]
[3]
  binding signal (PBM E-score (-0.5 to 0.5)): 0.496

## AGATCAAT (double strand) [8-mer AGATCAAT]
[4]
  binding signal (PBM E-score (-0.5 to 0.5)): 0.49
[5]
  binding signal (PBM E-score (-0.5 to 0.5)): 0.486
[6]
  binding signal (PBM E-score (-0.5 to 0.5)): 0.473

## CGTAGTCA (double strand) [8-mer CGTAGTCA]
[7]
  binding signal (PBM E-score (-0.5 to 0.5)): 0.48

## CTGACGTA (double strand) [8-mer CTGACGTA]
[8]
  binding signal (PBM E-score (-0.5 to 0.5)): 0.455
[9]
  binding signal (PBM E-score (-0.5 to 0.5)): 0.474

## ACACTACG (double strand) [8-mer ACACTACG]
[7]
  binding signal (PBM E-score (-0.5 to 0.5)): 0.493

## AAGATCAC (double strand) [8-mer AAGATCAC]
[6]
  binding signal (PBM E-score (-0.5 to 0.5)): 0.471

## TAAGTACA (double strand) [8-mer TAAGTACA]
[3]
  binding signal (PBM E-score (-0.5 to 0.5)): 0.492

## TTGATCAA (double strand) [8-mer TTGATCAA]
[2]
  binding signal (PBM E-score (-0.5 to 0.5)): 0.493
[5]
  binding signal (PBM E-score (-0.5 to 0.5)): 0.481

## AGATCAAA (double strand) [8-mer AGATCAAA]
[4]
  binding signal (PBM E-score (-0.5 to 0.5)): 0.473

## GAGATCAA (double strand) [8-mer GAGATCAA]
[4]
  binding signal (PBM E-score (-0.5 to 0.5)): 0.495
[5]
  binding signal (PBM E-score (-0.5 to 0.5)): 0.491
[6]
  binding signal (PBM E-score (-0.5 to 0.5)): 0.46

## AGATCAAG (double strand) [8-mer AGATCAAG]
[4]
  binding signal (PBM E-score (-0.5 to 0.5)): 0.466

## CGTCAGCA (double strand) [8-mer CGTCAGCA]
[8]
  binding signal (PBM E-score (-0.5 to 0.5)): 0.457

## AAGATCAG (double strand) [8-mer AAGATCAG]
[5]
  binding signal (PBM E-score (-0.5 to 0.5)): 0.47
[6]
  binding signal (PBM E-score (-0.5 to 0.5)): 0.466

## CGTCAGCC (double strand) [8-mer CGTCAGCC]
[8]
  binding signal (PBM E-score (-0.5 to 0.5)): 0.491

## CGAGATCA (double strand) [8-mer CGAGATCA]
[4]
  binding signal (PBM E-score (-0.5 to 0.5)): 0.46
[5]
  binding signal (PBM E-score (-0.5 to 0.5)): 0.472

## AATTGATC (double strand) [8-mer AATTGATC]
[2]
  binding signal (PBM E-score (-0.5 to 0.5)): 0.477

## AGTCACAT (double strand) [8-mer AGTCACAT]
[7]
  binding signal (PBM E-score (-0.5 to 0.5)): 0.481

## ACTACGAA (double strand) [8-mer ACTACGAA]
[7]
  binding signal (PBM E-score (-0.5 to 0.5)): 0.486

## AGGTCAAC (double strand) [8-mer AGGTCAAC]
[6]
  binding signal (PBM E-score (-0.5 to 0.5)): 0.465

## GACTACGC (double strand) [8-mer GACTACGC]
[7]
  binding signal (PBM E-score (-0.5 to 0.5)): 0.484

## CTGATCAA (double strand) [8-mer CTGATCAA]
[2]
  binding signal (PBM E-score (-0.5 to 0.5)): 0.481

## CAAGATCA (double strand) [8-mer CAAGATCA]
[4]
  binding signal (PBM E-score (-0.5 to 0.5)): 0.463
[5]
  binding signal (PBM E-score (-0.5 to 0.5)): 0.474

## TAGACCAA (double strand) [8-mer TAGACCAA]
[2]
  binding signal (PBM E-score (-0.5 to 0.5)): 0.479

## AGACTACG (double strand) [8-mer AGACTACG]
[7]
  binding signal (PBM E-score (-0.5 to 0.5)): 0.492

## CAAGTGCA (double strand) [8-mer CAAGTGCA]
[3]
  binding signal (PBM E-score (-0.5 to 0.5)): 0.493

## GGAGATCA (double strand) [8-mer GGAGATCA]
[5]
  binding signal (PBM E-score (-0.5 to 0.5)): 0.473

## ACGTCAGC (double strand) [8-mer ACGTCAGC]
[8]
  binding signal (PBM E-score (-0.5 to 0.5)): 0.491
[9]
  binding signal (PBM E-score (-0.5 to 0.5)): 0.469

## TGATCAAA (double strand) [8-mer TGATCAAA]
[2]
  binding signal (PBM E-score (-0.5 to 0.5)): 0.483

## ATGATCTC (double strand) [8-mer ATGATCTC]
[4]
  binding signal (PBM E-score (-0.5 to 0.5)): 0.46
